Experimental findings from PMC9449809 (Frontiers in Immunology, 2022) are described below.

In the test the target is SARS-CoV-2 spike protein receptor-binding domain, Wuhan-Hu-1 sequence (SARS-CoV-2, UniProt P0DTC2). As to the kind of experiment: ELISA. The settings on record: both partners purified. A general note: In an ELISA, binding on a coated surface is turned into a signal by an enzyme label.

B1: monoclonal antibody REGN10987 (imdevimab) (antibody, V domains shown)
VH: QVQLVESGGGVVQPGRSLRLSCAASGFTFSNYAMYWVRQAPGKGLEWVAVISYDGSNKYYADSVKGRFTISRDNSKNTLYLQMNSLRTEDTAVYYCASGSDYGDYLLVYWGQGTLVTVSS
VL: QSALTQPASVSGSPGQSITISCTGTSSDVGGYNYVSWYQQHPGKAPKLMIYDVSKRPSGVSNRFSGSKSGNTASLTISGLQSEDEADYYCNSLTSISTWVFGGGTKLTVL
Take B1: the binding result is “binds”.

B2: monoclonal antibody REGN10933 (casirivimab) (antibody, V domains shown)
VH: QVQLVESGGGLVKPGGSLRLSCAASGFTFSDYYMSWIRQAPGKGLEWVSYITYSGSTIYYADSVKGRFTISRDNAKSSLYLQMNSLRAEDTAVYYCARDRGTTMVPFDYWGQGTLVTVSS
VL: DIQMTQSPSSLSASVGDRVTITCQASQDITNYLNWYQQKPGKAPKLLIYAASNLETGVPSRFSGSGSGTDFTFTISGLQPEDIATYYCQQYDNLPLTFGGGTKVEIK
Turning to B2, the binding result is “binds”.
